Here are results for 2 molecules from article PMC4705684, “DNA binding fluorescent proteins for the direct visualization of large DNA molecules”.

The subject of series [1] is FP(eGFP)-DBP (synthetic construct; expressed in E. coli BL21 (DE3)). Briefly: EMSA. The settings on record: EMSA: 1x TE (10 mM Tris, 1 mM EDTA, pH 8.0) with 50% (v/v) glycerol, 10 ul, DNA stock ~31.4 nM, protein stocks 74 nM-148 uM, 0.5x TBE 4-20% PAGE, temperature …. Background: In EMSA bound probe runs differently from free probe, usually more slowly.
Another series concerns the target T1, DBP peptide KWKWKKA (synthetic construct).
T1 chain: KWKWKKA
Put plainly: UV absorbance quenching at 260 nm; stoichiometry 3 bp per DBP; EMSA: 1x TE (10 mM Tris, 1 mM EDTA, pH 8.0) with 50% (v/v) glycerol, 10 ul, DNA stock ~31.4 nM, protein stocks 74 nM-148 uM, 0.5x TBE 4-20% PAGE, temperature not stated; spectra in 1x TE; imaging in TE pH 8.0. To be noted: label: none (EtBr post-stain in EMSA); blunt.

As to “CTACTAGCACAATCGACTGTACGGACCGATCGAGTCACTAGCAGTCTAGCAA (double strand) [52-mer random dsDNA]”, the Kd in series [1] was determined as 14.7 µM.

B1: 52-mer random dsDNA (dsDNA)
DNA 1: CTACTAGCACAATCGACTGTACGGACCGATCGAGTCACTAGCAGTCTAGCAA
DNA 2: TTGCTAGACTGCTAGTGACTCGATCGGTCCGTACAGTCGATTGTGCTAGTAG
As to B1, in the series with DBP peptide KWKWKKA, the binding result is on record as “binds”.

Broadly, the Kd is the equilibrium constant for the complex coming apart. A lower Kd goes with higher affinity.
